Molecular target: SET/template-activating factor Iβ (SET/TAF-Iβ), recombinant (UniProt Q01105)
Test: ITC; 300 μM reduced Cc injected (17 x 2.91 μL) into 30 μM SET/TAF-Iβ (as homodimer) in the cell, 25°C, 10 mM sodium phosphate pH 7.4; WT fitted with two cooperative binding sites, mutants with independent binding sites

- Kd: 23 µM
- dH: -4.6 kcal/mol
- stoichiometry N: 2.2
Substance: Y48pCMF cytochrome c phosphomimetic mutant (reduced) (from UniProt P99999 2-105) (natural protein)
